The values below come from patent US20080108793.

The test system of the data set is crotonyl-ACP.

“N-terminal His-tagged F. tularensis FabI”: the Km (crotonyl-ACP) is 4.4 µM.
